From the nanobody polyreactivity screen of Harvey et al. (2022) come the findings set out here.

This data set is described as follows: yeast display, Sf9 membrane polyspecificity reagent, FACS + sequencing; frameworks hold sequencing errors. In outline:
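Nanobodies came from a synthetic yeast display library in Saccharomyces cerevisiae BJ5465, induced with galactose for 36–48 hours and stained for 1 hour at 4 °C with 10% biotinylated, detergent-solubilized Sf9 membrane reagent. Cells were enriched on streptavidin microbeads and then FACS-sorted, with low and high (top ~1%) gates set on anti-HA fluorescence for expression and streptavidin fluorescence for reagent binding. Each polyreactivity label reflects the gate a clone came from. Genes were amplified by colony PCR, sequenced by MiSeq 2 × 250 and filtered by CDR length.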
As for “QVQLVESGGGLVQAGGSLRLSCAASGITFSLYAMGWYRQAPGKERELVAAIDWSSGSTYYADSVKGRFTISRDNAKNTVYLQMNSLKPEDTAVYYCAAEYVHHASGDFSTLYYYWGQGTQVTVSS”, the “polyreactivity (PSR sort gate)” value was “low polyreactivity”.
On to “QVHLVESGGGLVQAGGSLRLSCAASGRIFRVYAMGWYRQAPGKERELVAAIRWSTGSTYYADSVKGRFTISRDIAKNTVYLHMNSLKPEDTAVYYCASYYYSSCSKFDYWGQGTQVTVSS”, for which the “polyreactivity (PSR sort gate)” value was “high polyreactivity”.
Then “QVLLVESGGGVVQAGGSLRLSCASSGFTYGSYAMGWYRQAPGKERELVAGITRSSGSTYYADSVKGRFTISRDNAKITDYLQMNSLKPEDTAVYYCRQFSVWGYDYWGQGTKVTVSS”, with “high polyreactivity”; and “QVHLVESGGGLVQAGGSLRLSCAASGRTIQTYTMGWYRQAPGKERELVAVITTRGGRTYYADSVKGRFTISRDNAKNTVYLQMNILKPEDTGVYYCNKGITTRSVRSYDYWGQGTQVTVSS”, with “high polyreactivity”; and “QVQLVESGGGLVQAGGSLRLSCAASGRTFPEYGMGWYRQAPGKEREFVAAISTRGGSTYYANSVKGRFTISRDNAKNTVYLQMNSLKPEDTAVYYCAKVYDRSGGDYWGQGTQVTVSS”, with “low polyreactivity”.
The entry for “QVHLVESVGGLVQAGGSLRLSCAASGRTFGGYAMGWYRQAHGKERELVAAIRRSGGSTYYADSVKGRFTISRDNAKNTVYLQMNSVKPEDTAVYYCAASGIYNVRMYYWGQGTLVTVSS” is “high polyreactivity”; for “QVQLVESGRGLVQAGGSLRLSCAASGSTFYIYAMGWYRQAPGKERELVAAISTTDGTTYYADSVKGRFTISRDNAKNTVYLQMNSLKPEDTAVYYCAAEWFGSVQPAYDYWGQGTQVTVSS” it is “high polyreactivity”.
On to “QVQLVESGGGLVQAGGSLRLSCAASGFIFRYYAMGWYRQATGKEREFVAVISSTTGSTYYADSVKGRFTISRDNAKNTVYLQMNSLKPEDTAVYYCAAASRRRRPLKRMDYWGQGTQVTVSS”, for which the “polyreactivity (PSR sort gate)” value is listed as “low polyreactivity”.
In the case of “QVQLVESGGGLVQAGGSLRLSCAASGITFYRYGMGWYRQAPGKARELVAAITYNGGGTYYADSVKGRFTISRDNAKNTVYLQMNSLKPEDTAVYYCNARYYRKYDYWGQGTQVTVSS”, the “polyreactivity (PSR sort gate)” value is listed as “high polyreactivity”.
Turning to “QVQLVESGGGLVQAGGSLRLSCAASGRIFRYNAMGWYRQAPGKERELVAAITNSCSTNYADSVKGRFTISRDNAKNTVYLQMNSMKQEDTAVYYCAARARFYGGRSYDYWGQGTQVTVSS”, the “polyreactivity (PSR sort gate)” value was “high polyreactivity”.
Consider “QVQLVESGGGLVQAGGSLRLSCAASGSIFPPYAMGWYRHAPGKERELVATITIRGGSTYYADSVKGRFTISRDNAKNTVYLQMNSLKPEDTAVYYCAADYSKYYRRYYYWGQGTQVTVSS”, for which the “polyreactivity (PSR sort gate)” value was “high polyreactivity”.
The entry for “QVQLVESGGGLVQAGGSLRLSCAASGSIFRYNAMGWYRQAPGKEREFVAIISYAGVRTYYADSVKGRFTISRDNAKNTVYLQMNSLKPEDTAVYYCAADFKQKGHRTRTTYWGQGTQVTVSS” is “high polyreactivity”.
Turning to “QVQLVESGGGLVQAGGILRLSSAASGSTFTLNAMGWYRQEPGKERELVADITSGGGGTYYADSVKGRFTISRDNAKNTVYLQMNSLKPEDTAVYYCAADDFHSLLGYWYGLFDFWGQGTQVTVSS”, the “polyreactivity (PSR sort gate)” value is “low polyreactivity”.
Then “QVQLVESGGGLVQAGGSLRLSCAASGSIFDPNAMGWYRKALGKERELVAAITYSGVDTYYADSVKGRFTISLDNAKNTVYLQMNILKPEDTAVYFCAGDNGRVGYDYWGQGTQVTVSS”, with “low polyreactivity”; and “QVQLVESGGGLVQAGGSLRLSCAASGSIFGRYAMGWYRQAPGKERELVAAISYSGGSTYYADSVKGRFTISRDNAKNTVYLQMKSLKPEDTAFYYCAAEPSYYTRWFDGHYYYWGQGSQVTVSS”, with “high polyreactivity”.
Then “QVQLVESGGGLVQAGGSLRLSCAASGITFVNYAMGWYRQAPGKERELVAAISGDGGNTYYADSVKGRFTISRDNAKNTVYLQMNSLKPEDTAVYYCAATPYLYRLYGYWYRPYYYWGQGTQVTVSS”, with “high polyreactivity”; and “QVQLVESGGGLVQAGGSLRLSCAASGSIFFGYAMGWYRQAPGKERELVAAISTRGGRTYYADSVKGRFTISRDNAKNTVYLQMNSLKPEDTAVYYCAAFQAHQTAFDYWGQGTQVTVSS”, with “high polyreactivity”.
Then “QVQLVESGGRLVQAGGSLRLSCAASGRTIGLNGMGWYRQAPGTERELVAGISWSGGSTNYADSVKGRFTISRDNAKNTVYLQMNSLKPEDTAVYYCAADFVYYVVNDFGWSYAYEYWGQGTQVTVSS”, with “low polyreactivity”; and “QVQLVESGGGLVQAGGSLRLICAASGRIFYHNAMGWYRQAPGKERELDAAITWSGGSTYYADSVKGRFTISRDNAKNTVYLQMNSLKPEDTAVYYCAALWLVNHYYPSQDYDYWGQGSQVTVSS”, with “high polyreactivity”; and “QVQLVESGGGLVQAGGSLRLICAASGSTFVPNAMGGYRQAPGKERELVAAITASTGRTYYADSVKGRFTISRDNAKNTVYLQMNSLKPEDTAVYYCAAYFVYWSDLEHYYPVEYGYWGQGTQVTVSS”, with “high polyreactivity”.
As for “QVQLVESGGGLVQAGGSLRLSCAASGSIFYGYAMGWYRQAPGKEREFVASINSGVGSTYYADSVKGRFTISRDNAKNTVYLQMNSLKPEDTAVYYCNKVHRSFTYNDGQTPAYDYWGQGTQVTVSS”, the “polyreactivity (PSR sort gate)” value is listed as “low polyreactivity”.
Then “QVQLVESGGGLVQAGGSLRLSCAASGRTFKRNAKGWYRQAPGKERELVAAISGTGASTYYADSVKGRFTISRDNAKNTVYLQMNSLKPEDTAVYYCAKYRYISNPVYLGDYWGQGTQVTVSS”, with “high polyreactivity”; and “QVQLVESGGGLVQAGGSLRLSCAASGSIFAFYAMGWYRQAPGKERELVAVISASGGSTYYADSVKGRFISRDNAKNTVSLQMNSLKPEDTAVYYCAAGTSTNSGTVPEEEDYWGQGTQVTVSS”, with “low polyreactivity”; and “QVQLVESGGGIVQAGGSHRLSCAASGSIFVSNAMGWYRQAPGKERELVAAISQSGGSTYYADSVKGRFTISRDTAKNTVYLQMNSLNPEDTAVYYCATPIRSGFRIYDYWGQGTQVTVSS”, with “low polyreactivity”.
For “QVQLVESGGGFVQAGGSLRLSCAASGGIFDVYAMGWYRQAPGKERELVAAISENGGSTYYADSVKGRFTISRDNAKNTVYLQMNSLKPEDTAVYYCAADDVSLSVFSYWAWYDYWGQGSQVTVSS”, the “polyreactivity (PSR sort gate)” value is on record as “low polyreactivity”.
Then “QVQLVESGGGLVQAGGSLRLSCAASGRTFASYAMGWYRQAPGKERELVATIRSGDSTNYADSVKGRFTISRDNAKHTVYLQMNSLKPEDTAVYYCAADRDIFQQGANGAPYDYRGQGTQVTVSS”, with “low polyreactivity”; and “QVQLVESGGRLVQAGGSLRLSCPASGIIRGTNAMGGYRQAPGKERELVASITSGAGITYYADSVKGRFTISRDNAKNTVYLQMNSLKPEDTAVYYCNTYPYLWGQGTQVTVSS”, with “low polyreactivity”; and “QVQLVESGGGLVQAGGSLRISCAASGRTFPWYAMGWYRPAPGKERELVADITWSGGSTYYADSVKGRFTISRDNAKNTVYLQMNSLKPEDTAVYYCATRVLFWYRKYPGRPLTKYDYWGQGTQVTVSS”, with “high polyreactivity”.
For the sequence “QVQLVESGGGLVQAGGSLRLSCAASGSTSSLYTMGWYRQAPGKERELVAAITRSGGGTYYADSVKGRFTSSRDNAKNTVYLQMNSLKPEDTAVYYCAAVQSEGRMGYWGQGTQVTVSS”, the “polyreactivity (PSR sort gate)” value is given as “high polyreactivity”.
The entry for “QVQLVESGGGLVQAGGSLRLSCAASGSTRYNAMGWYRQAPGKERELVAAINTSGGSTRYADSVKGRFTISRDNAKNPVYLQMNSLKPEDTAVYYCNAGNSIPGVQKVIVHGLDYWGQGTQVTVSS” is “high polyreactivity”; for “QVQLVESGGGLVQAGGSLRLSCAASGSIFDDYAMGWYRQAPGKERELVAANSGSGDITYYADSVKGRFTISRDNAKNTFYLQMNSLKPEDTAVYYCAAESVYTFYWGQGTQVTVSS” it is “high polyreactivity”; for “QVQLEESGGGLVQAGGSLRLSCAASGSTFEYKAKGWYRQAPGKERELVASSTNYADSVKGRFTISRDNAKNTVYLQMNSLKPEDTAVYYCAREQGVNRNHDYWGQGTQVTVSS” it is “low polyreactivity”.
The entry for “QVQLVESGGGLVQAGGSLRLSCAASGSTFYWYAMGWYRQAPGKERQLVAAITRNAGSTYYADTVKGRFTISRDNAKNTVYVQMNSLKPEDTAVSYCAADGARSAFLLAYYYWGQGTQVTGSS” is “low polyreactivity”; for “QVQLVESGGGLVQAGGSLRLSCAASGRIFYYYAMGWYRQAPGKERELVAAINRSGGSTYYADSVKGRFTISRDNAKNTVYLQKNSLKPEDTAVYYCASYDYWGQGSQVTVSS” it is “high polyreactivity”.
Then “QVLLQESGGLGQAGCSLPMSCAASGSISTALSMGWYRQAPGKERELVATISDGASTNYADSVKGRFTISRVNAKNTVYLQMNSLKPEDTEVYYCADQSQYRQDHRYWGQGTQVTVSS”, with “high polyreactivity”; and “QVQLVESAGGLVQAGGSLRLSCAASGSIFVPNVMGWYRQAPGKERELVATITRSTSTYYADSVKGRFTISRDNAKNTVYLQMNSLKPEDTAVYYCAAVWEWYSKYTRFYYWGQGTQVTVSS”, with “high polyreactivity”.
For “QVQLVESGGGLVQAGGSLRLSCAASGNIFTTYAMGWYRQAPGKERELVAAISRSGGRTNYADSVKGRFTISRDNAKNTVYLQLNSLKPEDTAVYYCAADGVPGRAVDYEYWGQGTQVTVSS”, the “polyreactivity (PSR sort gate)” value is recorded as “high polyreactivity”.
Then “QVQLVESGGGLVQAGGSLRLSCAASGRTFASYAMGWYRQATGKERELVAAITGSGGSTYYADSVKGRFTISRDNAKNTVYLQMNSLKPEDTAVYYCNKGPHYPVYLEYIVGYDYWGQGTQVTVSS”, with “low polyreactivity”.
Then “QVQLVESGGGLVQAGGSLRLSCAASGRTFRYYAMGWYRQAPGKERELVAAISSGGRTNYADSVKGRFTISRDNAKNTVYLQMNSLKPEDTAVYYCAARNTRFWYQNNLYDYWGQGTQVTVSS”, with “high polyreactivity”; and “QVQLVESGGGLVQAGGSLRLSCAASGSIFTVYVIGGYRQAPGKEREFVAAITYSGGRTDYADSVKGRFTISRDNAKNTVYLQMNSLKPEDTAVYYCAKVRDVLWRFNYWGQGTQVTVSS”, with “high polyreactivity”.
